Experimental data reported in patent US11427805B2, “Methods of producing human foregut endoderm cells expressing PDX1 from human definitive endoderm” (ViaCyte, Inc., priority 2005, dated 2022).

How the values were obtained:
Type in all cases: cell-based, human
[1] = system: PDX1 gene expression; experiment: Q-PCR of PDX1 gene expression in hESC-derived definitive endoderm cultures; details: for PDX1 induction over RA alone: added to 1 μM RA on day four, ninety six hours (FIG. 37A)
Experimental: (§1) Human embryonic stem cells were cultured with or without activins for four days. On day four, 1 μM RA and 50 ng/ml FGF-10 were added to the cell culture. Forty-eight hours after the RA/FGF-10 addition, the expression of the PDX1 marker gene and other marker genes not specific to foregut endoderm were quantitated by Q-PCR.
(§2) As in the previous Example, hESCs were cultured with or without activins for four days. On day four, the cells were treated with one of the following: 1 μM RA alone; 1 μM RA in combination with either FGF-4 or FGF-10; or 1 μM RA in combination with both FGF-4 and FGF-10. The expression of PDX1, SOX7 and NFM were quantitated by Q-PCR ninety six hours after RA or RA/FGF.
Human embryonic stem cells were cultured with or without activins for four days. On day four, FGF-10 at 50 ng/ml was added to the culture in combination with RA at 0.04 μM, 0.2 μM or 1.0 μM. The expression of the PDX1 marker gene as well as other markers not specific for foregut endoderm were quantitated by Q-PCR.
Human embryonic stem cells were induced to differentiate to definitive endoderm by treatment of undifferentiated hES cells grown on mouse embryonic fibroblast feeders with high dose activin A (100-200 ng/ml in 0.5-2% FBS/DMEM/F12) for 4 days. The no activin A control received 0.5-2% FBS/DMEM/F12 with no added activin A. At four days, cultures received either no activin A in 2% FBS (none), and in 2% serum replacement (SR), or 50 ng/ml activin A together with 2 μM RA and 50 ng/ml FGF-10 in 2% FBS/DMEM/F12 (none, +FBS, +B27) and similarly in 2% Serum replacement (SR). B27 supplement, (Gibco/BRL), was added as a 1/50 dilution directly into 2% FBS/DMEM/F12 (+B27). Duplicate cell samples where taken for each point, and total RNA was isolated and subjected to Q-PCR as previously described.
Human embryonic stem cells were induced to differentiate to definitive endoderm by treatment of undifferentiated hESCs grown on mouse embryonic fibroblast feeders with high dose activin A (50 ng/ml) in low serum/RPMI for 6 days. The FBS dose was 0% on day one, 0.2% on day two and 2% on days 3-6. The negative control for definitive endoderm production (NF) received 2% FBS/RPMI with no added activin A. In order to induce PDX1 expression, each of the cultures received retinoic acid at 2 μM in 2% FBS/RPMI on day 6. The cultures treated with activin A on days one through five were provided with different dosing combinations of activin A and activin B or remained in activin A alone at 50 ng/ml. The no activin A control culture (NF) was provided neither activin A nor activin B. This RA/activin treatment was carried out for 3 days at which time PDX1 gene expression was measured by Q-PCR from duplicate cell samples.
The definitive endoderm cultures generated by 5 days of activin A treatment were then induced to differentiate to PDX1 expressing endoderm by the addition of RA in 2% FBS/RPMI containing activin A at 25 ng/ml for four days. The RA was 2 μM for the first two days of addition, 1 μM on the third day and 0.5 μM on the fourth day. This base medium for PDX1 induction was provided fresh (2A25R) or after conditioning for 24 hours by one of four different cell populations. Conditioned media (CM) were generated from either mouse embryonic fibroblasts (MEFCM) or from hESCs that were first differentiated for 5 days by one of three conditions; i) 3% FBS/RPMI (CM2), or ii) activin A (CM3) or iii) bone morphogenic protein 4 (BMP4) (CM4). […]

[2] = system: definitive endoderm cells; experiment: Maintenance and expansion of definitive endoderm cells in culture; details: in the presence of activin
Description: Definitive endoderm cells produced by methods described herein have been maintained and expanded in culture in the presence of activin for greater than 50 days without appreciable differentiation. In such cases, SOX17, CXCR4, MIXL1, GATA4, HNF3β expression is maintained over the culture period. Additionally, TM, SPARC, OCT4, AFP, SOX7, ZIC1 and BRACH were not detected in these cultures. It is likely that such cells can be maintained and expanded in culture for substantially longer than 50 days without appreciable differentiation.

[3] = system: definitive endoderm; experiment: Dorsal / ventral / PDX1-negative foregut endoderm differentiation from definitive endoderm (marker gene expression); details: for specification of definitive endoderm into foregut endoderm: FGF10 5-500 ng/ml, KAAD-cyclopamine 0.1-2 μM
Experimental: Definitive endoderm was produced from undifferentiated hESCs using a three or five day protocol in which activin A was provided to the culture medium at a concentration of 100 ng/ml each day. For both dorsal and ventral differentiation, the medium composition for the first five days was as follows: Day 1—RPMI+0% fetal bovine serum (FBS), Day 2—RPMI+0.2% PBS, Day 3—RPMI+2.0% FBS, Day 4—RPMI+2.0% FBS and Day 5—RPMI+2.0% FBS. For the ventral differentiation, definitive endoderm was produced for 3 days in activin A at 100 ng/ml and then exposed to BMP4 at 3 ng/ml and FGF10 at 50 ng/ml. […] For the dorsal differentiation procedure, definitive endoderm was produced for 5 days in activin A at 100 ng/ml and then exposed to retinoic acid (RA) at 2 μM and activin A at 25 ng/ml in CMRL medium containing B27 supplement (1:200).
Four separate conditions were used to treat hESCs that result in varying proportions of differentiation to definitive endoderm. All four conditions utilized RPMI supplemented with 0% FBS on the first day, 0.2% FBS on second day, and 2% FBS on days 3 and 4. The four conditions were as follows: (a) BMP4 at 100 ng/mL with SU5402 at 5 μM; (b) no exogenous growth factors; (c) activin A at 15 ng/mL; and (d) activin A at 100 ng/ml. […] All cultures were then incubated for 2 days with BMP4 at 3 ng/mL, FGF10 at 50 ng/ml and KAAD-cyclopamine at 0.5 μM in a base medium of 2% FBS in RPMI followed by 6 days with BMP4 at 3 ng/mL, FGF10 at 50 ng/ml and KAAD-cyclopamine at 0.5 μM in a base medium composed of CMRL with 1:200 dilution of B27 extract.
Definitive endoderm was produced by exposing undifferentiated hESCs to activin at 100 ng/mL in RPMI base medium supplemented with 0%, 0.2%, and 2% FBS on days 1 through 3, respectively. After 3 days of activin A treatment, the cultures were switched to a base medium composed of RPMI containing 2% FBS and maintained under one of the following conditions: (a) BMP4 at 3 ng/ml with FGF10 at 50 ng/ml and KAAD-cyclopamine at 0.5 μM; (b) FGF10 at 50 ng/ml and KAAD-cyclopamine at 0.5 μM; or (c-e) no exogenous factors. After two days, the base medium was changed to CMRL plus B27 supplement (1:200) and cells were maintained according to conditions (a-c) above. Alternatively, cells were maintained with no exogenous factors in RPMI with B27 supplement (1:200) (condition (d)) or RPMI with 2% FBS (condition (e)). The same factor treatment conditions were maintained for 8 more days of differentiation.
Human embryonic stem cells were differentiated for 7 days via a 2-step protocol to achieve PDX1 cells. The first step comprised 5 days differentiation in activin A (100 ng/ml) to robustly produce DE (D'Amour, K., et al., Nature Biotechnology 23, 1534-1541, (2005)). […]

[4] = system: definitive endoderm cells; experiment: Q-PCR of marker genes other than PDX1 in hESC-derived definitive endoderm cultures; details: FIG. 40B
Experimental: as §1, §2
Human embryonic stem cells were cultured with or without activins for four days. […] The expression of the PDX1 marker gene as well as other markers not specific for foregut endoderm were quantitated by Q-PCR.
Human embryonic stem cells were induced to differentiate to definitive endoderm by treatment of undifferentiated hESCs grown on mouse embryonic fibroblast feeders with high dose activin A (50 ng/ml) in low serum/RPMI for 6 days. […] The no activin A control culture (NF) was provided neither activin A nor activin B. This RA/activin treatment was carried out for 3 days at which time PDX1 gene expression was measured by Q-PCR from duplicate cell samples. […]

[5] = system: SOX17 gene expression; experiment: Q-PCR of SOX17 gene expression in differentiating hESCs; details: added to activin A and activin B treated cultures (FIG. 23)
Experimental: In the following experiments, real-time quantitative RT-PCR (Q-PCR) was the primary assay used for screening the effects of various treatments on hESC differentiation. In particular, real-time measurements of gene expression were analyzed for multiple marker genes at multiple time points by Q-PCR. Marker genes characteristic of the desired as well as undesired cell types were evaluated to gain a better understanding of the overall dynamics of the cellular populations. The strength of Q-PCR analysis includes its extreme sensitivity and relative ease of developing the necessary markers, as the genome sequence is readily available. Furthermore, the extremely high sensitivity of Q-PCR permits detection of gene expression from a relatively small number of cells within a much larger population. In addition, the ability to detect very low levels of gene expression provides indications for “differentiation bias” within the population. The bias towards a particular differentiation pathway, prior to the overt differentiation of those cellular phenotypes, is unrecognizable using immunocytochemical techniques. […] Additionally, Q-PCR provides a mechanism by which to evaluate the success of a differentiation protocol in a quantitative format at semi-high throughput scales of analysis.
The approach taken here was to perform relative quantitation using SYBR Green chemistry on a Rotor Gene 3000 instrument (Corbett Research) and a two-step RT-PCR format. Such an approach allowed for the banking of cDNA samples for analysis of additional marker genes in the future, thus avoiding variability in the reverse transcription efficiency between samples.
To generate PCR template, total RNA was isolated using RNeasy (Qiagen) and quantitated using RiboGreen (Molecular Probes). Reverse transcription from 350-500 ng of total RNA was carried out using the iScript reverse transcriptase kit (BioRad), which contains a mix of oligo-dT and random primers. Each 20 μL reaction was subsequently diluted up to 100 μL total volume and 3 μL was used in each 10 μL Q-PCR reaction containing 400 nM forward and reverse primers and 5 μL 2×SYBR Green master mix (Qiagen). Two step cycling parameters were used employing a 5 second denature at 85-94° C. (specifically selected according to the melting temp of the amplicon for each primer set) followed by a 45 second anneal/extend at 60° C. Fluorescence data was collected during the last 15 seconds of each extension phase. A three point, 10-fold dilution series was used to generate the standard curve for each run and cycle thresholds (Ct's) were converted to quantitative values based on this standard curve. The quantitated values for each sample were normalized to housekeeping gene performance and then average and standard deviations were calculated for triplicate samples. At the conclusion of PCR cycling, a melt curve analysis was performed to ascertain the specificity of the reaction. A single specific product was indicated by a single peak at the Tm appropriate for that PCR amplicon.
A first step in establishing the Q-PCR methodology was validation of appropriate housekeeping genes (HGs) in the experimental system. […] We measured the expression levels of Cyclophilin G, hypoxanthine phosphoribosyltransferase 1 (HPRT), beta-2-microglobulin, hydroxymethylbiane synthase (HMBS), TATA-binding protein (TBP), and glucoronidase beta (GUS) in differentiating hESCs. […] We routinely used both Cyclophilin G and GUS to calculate a normalization factor for all samples. The use of multiple HGs simultaneously reduces the variability inherent to the normalization process and increases the reliability of the relative gene expression values.
We were the first to analyze and describe the effect of TGFβ family growth factors, such as Nodal/activin/BMP, for use in creating definitive endoderm cells from embryonic stem cells in in vitro cell cultures. […]

Molecule: CC1=C(/C=C/C(C)=C/C=C/C(C)=C/C(=O)O)C(C)(C)CCC1 [retinoic acid, reference compound]
- increase in PDX1 gene expression ([1]; activin for four days followed by 1 μM RA, ninety six hours): 60 fold

Molecule: activin
- PDX1 expression in activin treated cell cultures relative to cultures that received no activin prior to RA application ([1]; four days with or without activins, then 1 μM RA and 50 ng/ml FGF-10 for 48 hours): 160 fold
- time definitive endoderm cells were maintained and expanded in culture without appreciable differentiation [2]: greater than 50 days

Molecule: CC1=C2C[C@H]3[C@@H](CC=C4CC(=O)CC[C@@]43C)[C@@H]2CC[C@]12O[C@@H]1C[C@H](C)CN(CCNC(=O)CCCCCNC(=O)CCc3ccccc3)[C@H]1[C@H]2C [KAAD-cyclopamine, reference compound]
- specification of definitive endoderm into foregut endoderm [3]: further specified definitive endoderm cells into the foregut endoderm domain

B1: FGF-4 (protein, UniProt P08620 31-206, looked up)
Fibroblast growth factor 4: APTAPNGTLEAELERRWESLVALSLARLPVAAQPKEAAVQSGAGDYLLGIKRLRRLYCNVGIGFHLQALPDGRIGGAHADTRDSLLELSPVERGVVSIFGVASRFFVAMSSKGKLYGSPFFTDECTFKEILLPNNYNAYESYKYPGMFIALSKNGKTKKGNRVSPTMKVTHFLPRL
notes: fibroblast growth factor
- PDX1 induction over RA alone [1]: approximately 3 fold

B2: activin B (protein, UniProt P09529 293-407, looked up)
Inhibin beta B chain: GLECDGRTNLCCRQQFFIDFRLIGWNDWIIAPTGYYGNYCEGSCPAYLAGVPGSASSFHTAVVNQYRMRGLNPGTVNSCCIPTKLSTMSMLYFDDEYNIVKRDVPNMIVEECGCA
modifications: Inhibin beta B chain
- increase in PDX1 expression over the culture that received only activin A at 50 ng/ml ([1]; activin B 10-50 ng/ml with 25 or 50 ng/ml activin A and 2 μM RA, 3 days (FIG. 40A)): at least 2 fold
- HNF6 expression [4]: without increase in HNF6 expression

B3: FGF-10 (protein, UniProt O15520 38-208, looked up)
Fibroblast growth factor 10: QALGQDMVSPEATNSSSSSFSSPSSAGRHVRSYNHLQGDVRWRKLFSFTKYFLKIEKNGKVSGTKKENCPYSILEITSVEIGVVAVKAINSNYYLAMNKKGKLYGSKEFNNDCKLKERIEENGYNTYASFNWQHNGRQMYVALNGKGAPRRGQKTRRKNTSAHFLPMVVHS
notes: fibroblast growth factor
- PDX1 induction over RA alone [1]: 60 fold
- specification of definitive endoderm into foregut endoderm [3]: beneficial

B4: Wnt3a (protein, UniProt P56704 19-352, looked up)
Protein Wnt-3a: SYPIWWSLAVGPQYSSLGSQPILCASIPGLVPKQLRFCRNYVEIMPSVAEGIKIGIQECQHQFRGRRWNCTTVHDSLAIFGPVLDKATRESAFVHAIASAGVAFAVTRSCAEGTAAICGCSSRHQGSPGKGWKWGGCSEDIEFGGMVSREFADARENRPDARSAMNRHNNEAGRQAIASHMHLKCKCHGLSGSCEVKTCWWSQPDFRAIGDFLKDKYDSASEMVVEKHRESRGWVETLRPRYTYFKVPTERDLVYYEASPNFCEPNPETGSFGTRDRTCNVSSHGIDGCDLLCCGRGHNARAERRREKCRCVFHWCCYVSCQECTRVYDVHTCK
notes: Wnt family growth factor
- SOX17 expression relative to activin A and activin B alone [5]: increases SOX17 expression

B5: BMP4 (protein, UniProt P12644 293-408, looked up)
Bone morphogenetic protein 4: SPKHHSQRARKKNKNCRRHSLYVDFSDVGWNDWIVAPPGYQAFYCHGDCPFPLADHLNSTNHAIVQTLVNSVNSSIPKACCVPTELSAISMLYLDEYDKVVLKNYQEMVVEGCGCR
notes: bone morphogenic protein 4, member of the TGFβ family
- production of PDX1-positive ventral foregut endoderm ([3]; after 3 days activin 100 ng/mL, FGF10 50 ng/ml, KAAD-cyclopamine 0.5 μM, BMP4 3 ng/ml (FIGS. 52A, 52B)): not needed
